In patent US20200165342A1:
Several values for one entry are separate records, joined by “and”; a condition that tells them apart may be missing. Equal entries are not always repeated.

Tests used:
Experiment in all cases: cell-based or functional assay
[1] = biological target: HLA-DR of the DR^str donor (HLA-DRB1 variant bound strongly by MVR), on B cells, T cells and EBV LCLs (human)
[2] = biological target: HLA-DR of the DR^int donor (HLA-DRB1 variant bound with intermediate affinity by MVR), on B cells and T cells (human)
[3] = biological target: HLA-DR of the DR^weak donor (HLA-DRB1 variant bound weakly by MVR), on B cells, T cells and EBV LCLs (human)

B1: MVR CAR (second-generation HLA-DR CAR, FLAG-tagged, from pELPS-FLAGMVRBBz, expressed on T cells or EBV LCLs) (protein)
chain: DYKDDDDKDIQMTQSSSYLSVSLGGRVTITCKASDHINNWLAWYQQKPGNAPRLLISGATSLETGVPSRFSGSGSGKDYTLSITSLQTEDVATYYCQQYWSTPFTFGSGTKLEIKGGGGSGGGGSGGGGSQVQLKESGPGLVAPSQSLSITSTVSGFSLSRYSVHWVRQPPGKGLEWLGMIWGGGSTDYNSALKSRLSISKDNSKSQVFLKMNSLQTDDTAMYYCARNEGDTTAGTWFAYWGQGTLVTVSSTTTPAPRPPTPAPTIASQPLSLRPEACRPAAGGAVHTRGLDFACDIYIWAPLAGTCGVLLLSLVITLYCKRGRKKLLYIFKQPFMRPVQTTQEEDGCSCRFPEEEEGGCELRVKFSRSADAPAYKQGQNQLYNELNLGRREEYDVLDKRRGRDPEMGGKPRRKNPQEGLYNELQKDKMAEAYSEIGMKGERRRGKGHDGLYQGLSTATKDTYDALHMQALPPR
In the case of B1, the frequency of CD4+ MVR-CAR T cells with two or more polyfunctional markers after co-culture with DR^str-EBV-LCLs [1] is reported as 71.3%, the frequency of CD8+ MVR-CAR T cells with two or more polyfunctional markers after co-culture with DR^str-EBV-LCLs [1] is reported as 29.4% and the granule influx into DR^str B cells and DR^str EBV LCLs relative to CD19 CAR T cells [1] is reported as 2 fold and 4 fold. For the same binder, the granule transfer rate to DR^str-EBV-LCLs relative to DR^weak-EBV-LCLs [1] was 2 to 3 times higher, the frequency of CAR T cells with two or more exhaustion markers (LAG-3, Tim-3, CTLA-4, PD-1) [2] was 65.8% and the frequency of CAR T cells with two or more exhaustion markers [3] was 9.2%. For the same binder, the frequency of CD4+ MVR-CAR T cells with two or more polyfunctional markers after co-culture with DR^weak-EBV-LCLs [3] was 31.6%, the frequency of CD8+ MVR-CAR T cells with two or more polyfunctional markers after co-culture with DR^weak-EBV-LCLs [3] was 26.3% and the frequency of Tim-3 expressing CAR T cells [3] was 60.7%. The surface CAR expression (MFI) relative to CD19 CAR T cells [3] was 2 fold lower.
